In one test the target is TAP-LSD1 (UniProt O60341 1-852). The experiment in a line: TAP-LSD1 complexes immobilised on IgG sepharose, Western blot. From the text:
Protein complexes were immobilised on IgG, sepharose, released from IgG sepharose by TEV protease cleavage of the TAP tag, followed by immunoprecipitation of Flag-tagged AR with α-Flag antibody. […] Ten percent of the extract used for immunoprecipitation was loaded as input.
LSD1 associated complexes were released from IgG sepharose by TEV protease cleavage of the TAP-tag followed by immunoprecipitation of Flag-tagged AR with α-Flag antibody. […] We applied the TAP-based co-purification strategy because the moderate expression levels of the endogenous proteins would only have allowed a limited number of purification steps.
Background: In western blotting, separated proteins are transferred to a membrane and probed.

Another test addresses T1, GFP-JHDM2A (UniProt Q9Y4C1 1-1321).
T1 construct: not shown: GFP fusion partner
T1 sequence (looked up): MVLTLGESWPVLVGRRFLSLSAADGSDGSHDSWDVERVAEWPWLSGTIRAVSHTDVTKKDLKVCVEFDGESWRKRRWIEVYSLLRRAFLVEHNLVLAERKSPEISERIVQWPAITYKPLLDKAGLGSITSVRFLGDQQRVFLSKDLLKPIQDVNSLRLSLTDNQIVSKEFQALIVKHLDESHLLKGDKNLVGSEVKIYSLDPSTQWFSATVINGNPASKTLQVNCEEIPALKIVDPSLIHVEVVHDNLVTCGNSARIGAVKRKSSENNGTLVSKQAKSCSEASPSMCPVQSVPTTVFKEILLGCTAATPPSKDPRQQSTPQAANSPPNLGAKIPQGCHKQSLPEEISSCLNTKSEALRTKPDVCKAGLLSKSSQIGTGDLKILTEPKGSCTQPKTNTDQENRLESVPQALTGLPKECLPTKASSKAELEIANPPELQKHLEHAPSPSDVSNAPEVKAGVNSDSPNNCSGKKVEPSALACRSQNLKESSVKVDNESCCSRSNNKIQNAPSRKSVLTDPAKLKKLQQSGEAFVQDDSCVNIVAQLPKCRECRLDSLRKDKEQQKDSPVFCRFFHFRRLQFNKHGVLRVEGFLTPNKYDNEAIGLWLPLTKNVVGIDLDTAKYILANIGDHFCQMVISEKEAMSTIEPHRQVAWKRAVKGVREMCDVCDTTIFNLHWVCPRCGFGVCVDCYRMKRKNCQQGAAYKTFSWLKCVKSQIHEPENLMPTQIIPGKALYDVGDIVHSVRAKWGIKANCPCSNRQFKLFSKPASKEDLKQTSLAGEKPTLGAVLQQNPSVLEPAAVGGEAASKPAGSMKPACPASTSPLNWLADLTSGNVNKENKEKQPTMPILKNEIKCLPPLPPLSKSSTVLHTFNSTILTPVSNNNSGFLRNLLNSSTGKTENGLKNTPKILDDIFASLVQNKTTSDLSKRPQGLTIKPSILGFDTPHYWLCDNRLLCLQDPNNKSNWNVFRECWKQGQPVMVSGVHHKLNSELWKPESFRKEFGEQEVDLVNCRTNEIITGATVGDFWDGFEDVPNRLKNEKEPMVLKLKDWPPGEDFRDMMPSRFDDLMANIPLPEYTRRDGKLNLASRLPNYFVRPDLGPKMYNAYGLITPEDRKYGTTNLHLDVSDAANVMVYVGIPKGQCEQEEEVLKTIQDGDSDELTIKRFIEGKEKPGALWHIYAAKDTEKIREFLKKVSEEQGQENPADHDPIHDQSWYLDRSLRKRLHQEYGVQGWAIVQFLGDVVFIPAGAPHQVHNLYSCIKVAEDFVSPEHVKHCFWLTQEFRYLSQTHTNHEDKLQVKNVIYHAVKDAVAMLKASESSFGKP
The experiment in a line: co-immunoprecipitation with α-Flag from transfected 293 cells, Western blot with α-GFP. From the text:
Extracts were immunoprecipitated with α-Flag antibody. Twenty percent of the extract used for immunoprecipitation was loaded as input. Western blots were decorated with α-GFP (Santa Cruz; 1:500) or α-Flag antibody (1:2500).

The target of test [1] is LSD1 (endogenous, LNCaP cells) (human, UniProt O60341 1-852). The experiment in a line: Re-ChIP in LNCaP cells.
Protocol: LNCaP cells were incubated with or without the AR agonist R1881 (a, b), and transfected with stealth RNAi (b). ChIP or Re-ChIP was performed with the indicated antibodies. The precipitated chromatin was amplified by PCR using primers flanking the promoter region (ARE I+II) and the enhancer region (ARE III) of the PSA gene, the promoter region (ARE) of the KLK2 gene, or the promoters of the unrelated GAPDH and U6 genes. […] Western blots were decorated with the indicated antibodies against α-mono-, α-di-, or α-trimethyl H3K9.
ChIP experiments were performed as described[3]. LNCaP cells were treated for 45 min (FIG. 2a) or 210 min in the presence or absence of 10^-8 M R1881 as indicated. LNCaP cells were transfected three days before harvesting for ChIP with or without stealth RNAi (Invitrogen) following the manufacturer's instructions. […] For PCR, 1-5 µl out of 50 d DNA extract was used. For Re-ChIP assays, immunoprecipitations were sequentially washed with TSE I, TSE II, buffer III, and TE[20]. Complexes were eluted by incubation with 10 mM DTT at 37° C. for 30 minutes, diluted 50 times with dilution buffer[20] followed by a second immunoprecipitation with the indicated antibodies.

B1: Flag-AR (receptor)
chain: MEVQLGLGRVYPRPPSKTYRGAFQNLFQSVREVIQNPGPRHPEAASAAPPGASLLLLQQQQQQQQQQQQQQQQQQQQQQQETSPRQQQQQQGEDGSPQAHRRGPTGYLVLDEEQQPSQPQSALECHPERGCVPEPGAAVAASKGLPQQLPAPPDEDDSAAPSTLSLLGPTFPGLSSCSADLKDILSEASTMQLLQQQQQEAVSEGSSSGRAREASGAPTSSKDNYLGGTSTISDNAKELCKAVSVSMGLGVEALEHLSPGEQLRGDCMYAPLLGVPPAVRPTPCAPLAECKGSLLDDSAGKSTEDTAEYSPFKGGYTKGLEGESLGCSGSAAAGSSGTLELPSTLSLYKSGALDEAAAYQSRDYYNFPLALAGPPPPPPPPHPHARIKLENPLDYGSAWAAAAAQCRYGDLASLHGAGAAGPGSGSPSAAASSSWHTLFTAEEGQLYGPCGGGGGGGGGGGGGGGGGGGGGGGEAGAVAPYGYTRPPQGLAGQESDFTAPDVWYPGGMVSRVPYPSPTCVKSEMGPWMDSYSGPYGDMRLETARDHVLPIDYYFPPQKTCLICGDEASGCHYGALTCGSCKVFFKRAAEGKQKYLCASRNDCTIDKFRRKNCPSCRLRKCYEAGMTLGARKLKKLGNLKLQEEGEASSTTSPTEETTQKLTVSHIEGYECQPIFLNVLEAIEPGVVCAGHDNNQPDSFAALLSSLNELGERQLVHVVKWAKALPGFRNLHVDDQMAVIQYSWMGLMVFAMGWRSFTNVNSRMLYFAPDLVFNEYRMHKSRMYSQCVRMRHLSQEFGWLQITPQEFLCMKALLLFSIIPVDGLKNQKFFDELRMNYIKELDRIIACKRKNPTSCSRRFYQLTKLLDSVQPIARELHQFTFDLLIKSHMVSVDFPEMMAEIISVQVPKILSGKVKPIYFHTQ
notes: Plasmid described previously; Assays in the presence of R1881; also called Flag-tagged AR; not shown: Flag tag
With B1, the binding result with TAP-LSD1 is “binds”.

B2: V5-JMJD2C (enzyme)
chain: MEVAEVESPLNPSCKIMTFRPSMEEFREFNKYLAYMESKGAHRAGLAKVIPPKEWKPRQCYDDIDNLLIPAPIQQMVTGQSGLFTQYNIQKKAMTVKEFRQLANSGKYCTPRYLDYEDLERKYWKNLTFVAPIYGADINGSIYDEGVDEWNIARLNTVLDVVEEECGISIEGVNTPYLYFGMWKTTFAWHTEDMDLYSINYLHFGEPKSWYAIPPEHGKRLERLAQGFFPSSSQGCDAFLRHKMTLISPSVLKKYGIPFDKITQEAGEFMITFPYGYHAGFNHGFNCAESTNFATVRWIDYGKVAKLCTCRKDMVKISMDIFVRKFQPDRYQLWKQGKDIYTIDHTKPTPASTPEVKAWLQRRRKVRKASRSFQCARSTSKRPKADEEEEVSDEVDGAEVPNPDSVTDDLKVSEKSEAAVKLRNTEASSEEESSASRMQVEQNLSDHIKLSGNSCLSTSVTEDIKTEDDKAYAYRSVPSISSEADDSIPLSSGYEKPEKSDPSELSWPKSPESCSSVAESNGVLTEGEESDVESHGNGLEPGEIPAVPSGERNSFKVPSIAEGENKTSKSWRHPLSRPPARSPMTLVKQQAPSDEELPEVLSIEEEVEETESWAKPLIHLWQTKSPNFAAEQEYNATVARMKPHCAICTLLMPYHKPDSSNEENDARWETKLDEVVTSEGKTKPLIPEMCFIYSEENIEYSPPNAFLEEDGTSLLISCAKCCVRVHASCYGIPSHEICDGWLCARCKRNAWTAECCLCNLRGGALKQTKNNKWAHVMCAVAVPEVRFTNVPERTQIDVGRIPLQRLKLKCIFCRHRVKRVSGACIQCSYGRCPASFHVTCAHAAGVLMEPDDWPYVVNITCFRHKVNPNVKSKACEKVISVGQTVITKHRNTRYYSCRVMAVTSQTFYEVMFDDGSFSRDTFPEDIVSRDCLKLGPPAEGEVVQVKWPDGKLYGAKYFGSNIAHMYQVEFEDGSQIAMKREDIYTLDEELPKRVKARFSTASDMRFEDTFYGADIIQGERKRQRVLSSRFKNEYVADPVYRTFLKSSFQKKCQKRQ
notes: also called CMX-DEST51-JMJD2C; not shown: V5 tag
Consider B2, for which the binding result with TAP-LSD1 is given as “binds”.

B3: Flag-JMJD2C (enzyme, human, UniProt Q9H3R0 1-1056, looked up)
chain: MEVAEVESPLNPSCKIMTFRPSMEEFREFNKYLAYMESKGAHRAGLAKVIPPKEWKPRQCYDDIDNLLIPAPIQQMVTGQSGLFTQYNIQKKAMTVKEFRQLANSGKYCTPRYLDYEDLERKYWKNLTFVAPIYGADINGSIYDEGVDEWNIARLNTVLDVVEEECGISIEGVNTPYLYFGMWKTTFAWHTEDMDLYSINYLHFGEPKSWYAIPPEHGKRLERLAQGFFPSSSQGCDAFLRHKMTLISPSVLKKYGIPFDKITQEAGEFMITFPYGYHAGFNHGFNCAESTNFATVRWIDYGKVAKLCTCRKDMVKISMDIFVRKFQPDRYQLWKQGKDIYTIDHTKPTPASTPEVKAWLQRRRKVRKASRSFQCARSTSKRPKADEEEEVSDEVDGAEVPNPDSVTDDLKVSEKSEAAVKLRNTEASSEEESSASRMQVEQNLSDHIKLSGNSCLSTSVTEDIKTEDDKAYAYRSVPSISSEADDSIPLSSGYEKPEKSDPSELSWPKSPESCSSVAESNGVLTEGEESDVESHGNGLEPGEIPAVPSGERNSFKVPSIAEGENKTSKSWRHPLSRPPARSPMTLVKQQAPSDEELPEVLSIEEEVEETESWAKPLIHLWQTKSPNFAAEQEYNATVARMKPHCAICTLLMPYHKPDSSNEENDARWETKLDEVVTSEGKTKPLIPEMCFIYSEENIEYSPPNAFLEEDGTSLLISCAKCCVRVHASCYGIPSHEICDGWLCARCKRNAWTAECCLCNLRGGALKQTKNNKWAHVMCAVAVPEVRFTNVPERTQIDVGRIPLQRLKLKCIFCRHRVKRVSGACIQCSYGRCPASFHVTCAHAAGVLMEPDDWPYVVNITCFRHKVNPNVKSKACEKVISVGQTVITKHRNTRYYSCRVMAVTSQTFYEVMFDDGSFSRDTFPEDIVSRDCLKLGPPAEGEVVQVKWPDGKLYGAKYFGSNIAHMYQVEFEDGSQIAMKREDIYTLDEELPKRVKARFSTASDMRFEDTFYGADIIQGERKRQRVLSSRFKNEYVADPVYRTFLKSSFQKKCQKRQ
notes: also called CMX-Flag-JMJD2C; not shown: Flag tag
Regarding B3, in the test with GFP-JHDM2A, the binding result is “no binding”.

B4: JMJD2C (endogenous, LNCaP cells) (enzyme)
chain: MEVAEVESPLNPSCKIMTFRPSMEEFREFNKYLAYMESKGAHRAGLAKVIPPKEWKPRQCYDDIDNLLIPAPIQQMVTGQSGLFTQYNIQKKAMTVKEFRQLANSGKYCTPRYLDYEDLERKYWKNLTFVAPIYGADINGSIYDEGVDEWNIARLNTVLDVVEEECGISIEGVNTPYLYFGMWKTTFAWHTEDMDLYSINYLHFGEPKSWYAIPPEHGKRLERLAQGFFPSSSQGCDAFLRHKMTLISPSVLKKYGIPFDKITQEAGEFMITFPYGYHAGFNHGFNCAESTNFATVRWIDYGKVAKLCTCRKDMVKISMDIFVRKFQPDRYQLWKQGKDIYTIDHTKPTPASTPEVKAWLQRRRKVRKASRSFQCARSTSKRPKADEEEEVSDEVDGAEVPNPDSVTDDLKVSEKSEAAVKLRNTEASSEEESSASRMQVEQNLSDHIKLSGNSCLSTSVTEDIKTEDDKAYAYRSVPSISSEADDSIPLSSGYEKPEKSDPSELSWPKSPESCSSVAESNGVLTEGEESDVESHGNGLEPGEIPAVPSGERNSFKVPSIAEGENKTSKSWRHPLSRPPARSPMTLVKQQAPSDEELPEVLSIEEEVEETESWAKPLIHLWQTKSPNFAAEQEYNATVARMKPHCAICTLLMPYHKPDSSNEENDARWETKLDEVVTSEGKTKPLIPEMCFIYSEENIEYSPPNAFLEEDGTSLLISCAKCCVRVHASCYGIPSHEICDGWLCARCKRNAWTAECCLCNLRGGALKQTKNNKWAHVMCAVAVPEVRFTNVPERTQIDVGRIPLQRLKLKCIFCRHRVKRVSGACIQCSYGRCPASFHVTCAHAAGVLMEPDDWPYVVNITCFRHKVNPNVKSKACEKVISVGQTVITKHRNTRYYSCRVMAVTSQTFYEVMFDDGSFSRDTFPEDIVSRDCLKLGPPAEGEVVQVKWPDGKLYGAKYFGSNIAHMYQVEFEDGSQIAMKREDIYTLDEELPKRVKARFSTASDMRFEDTFYGADIIQGERKRQRVLSSRFKNEYVADPVYRTFLKSSFQKKCQKRQ
notes: Endogenous protein, on chromatin (ChIP / Re-ChIP)
Consider B4, for which, in test [1], the binding result is on record as “binds”.

For the origin of these results see patent US8293494 (UNIVERSITATSKLINIKUM FREIBURG, dated 2012).
